Reference: PMC10566112

Biological target: dopamine D2 receptor labelled with mCherry (D2R-mCherry) (UniProt P14416)
Chain of UniProt P14416 (P14416 whole entry): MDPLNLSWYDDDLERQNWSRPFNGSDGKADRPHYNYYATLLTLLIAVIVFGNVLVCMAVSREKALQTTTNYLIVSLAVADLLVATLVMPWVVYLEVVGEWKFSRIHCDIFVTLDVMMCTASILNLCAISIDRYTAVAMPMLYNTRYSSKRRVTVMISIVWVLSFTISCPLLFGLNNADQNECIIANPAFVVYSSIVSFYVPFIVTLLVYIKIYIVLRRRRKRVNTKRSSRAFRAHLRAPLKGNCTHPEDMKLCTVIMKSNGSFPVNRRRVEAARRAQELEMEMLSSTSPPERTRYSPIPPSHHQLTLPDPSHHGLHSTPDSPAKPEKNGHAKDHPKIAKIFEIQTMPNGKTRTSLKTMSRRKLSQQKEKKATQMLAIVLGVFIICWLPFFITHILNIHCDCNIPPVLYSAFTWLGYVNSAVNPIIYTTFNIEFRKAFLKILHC

Substance | intracellular cAMP level in HEK293 cells after stimulation of D2R with 1 μM sumanirole, as percent of control (stimulated nontransfected cells) (% of the control)
Gαi3β1γ2 heterotrimer (Gαi3-Citrine with Gβ1 and Gγ2) (from UniProt P08754 1-354; P62873 1-340; P59768 1-71) (complex) | 20
Gαi3β1γ9 heterotrimer (Gαi3-Citrine with Gβ1 and Gγ9) (from UniProt P08754 1-354; P62873 1-340; O14610 1-69) (complex) | 70.4
Gαi3β1γ10 heterotrimer (Gαi3-Citrine with Gβ1 and Gγ10) (from UniProt P08754 1-354; P62873 1-340; P50151 1-68) (complex) | 14.4
